# Measured values taken from article PMC12959407 (Science Advances, 2026).
# “And” between values parts separate entries of the source, which are not always exact repeats. Identical values can stand only once.
# B1: recombinant WT human mitochondrial Hsp60 (mHsp60), mature form (natural protein)
# chain: GSAKDVKFGADARALMLQGVDLLADAVAVTMGPKGRTVIIEQSWGSPKVTKDGVTVAKSIDLKDKYKNIGAKLVQDVANNTNEEAGDGTTTATVLARSIAKEGFEKISKGANPVEIRRGVMLAVDAVIAELKKQSKPVTTPEEIAQVATISANGDKEIGNIISDAMKKVGRKGVITVKDGKTLNDELEIIEGMKFDRGYISPYFINTSKGQKCEFQDAYVLLSEKKISSIQSIVPALEIANAHRKPLVIIAEDVDGEALSTLVLNRLKVGLQVVAVKAPGFGDNRKNQLKDMAIATGGAVFGEEGLTLNLEDVQPHDLGKVGEVIVTKDDAMLLKGKGDKAQIEKRIQEIIEQLDVTTSEYEKEKLNERLAKLSDGVAVLKVGGTSDVEVNEKKDRVTDALNATRAAVEEGIVLGGGCALLRCIPALDSLTPANEDQKIGIEIIKRTLKIPAMTIAKNAGVEGSLIVEKIMQSSSEVGYDAMAGDFVNMVEKGIIDPTKVVRTALLDAAGVASLLTTAEVVVTEIPKEEKDPGMGAMGGMGGGMGGGMF
# notes: additional Gly-Ser kept at the N terminus after TEV cleavage; human mitochondrial Hsp60 without the 26-residue mitochondrial targeting signal of the 573-residue precursor; mature protein of 547 residues beginning with AKDVKFG; numbers count on: the mature protein; Forms heptameric rings; seven copies in single rings and half-footballs, fourteen in double rings, bullets and footballs; also called …
# Target: the molecule itself
# Assay: cryo-EM structure; single-particle cryo-EM of purified proteins; mHsp60 10 uM and mHsp10 8 uM mixed in 20 mM tris-HCl pH 7.7, 20 mM KCl, 10 mM MgCl2, 2 mM ATP; incubated 30 s to 30 min before vitrification
protein,measurement,value
B1,stoichiometry N,7 and 14
